The values that follow come from publication PMC6220978, “Induced conformational changes activate the peptidoglycan synthase PBP1B” (Molecular Microbiology, 2018).

Residue numbers refer to the chain shown, from its start.

Assay in all cases: SPR; reducing conditions: 2 mM TCEP in the SPR running buffer, immobilised PBP1B versions incubated in it for 30 min before the assay; LpoB injected from 19.5 nM to 10 μM; apparent KD
Common to all, as to conditions: both partners purified
In general terms: Surface plasmon resonance follows binding to a sensor surface in real time, without labels.

One test addresses T1, PBP1B^Δ158–160 (E. coli, UniProt P02919 46-844, Δ158–160).
T1 construct: PBP1B, E. coli, residues 46-844 with residues 158-160 of Loop 1 removed, made by mutagenesis of pDML924; also called Loop 1 truncation; source: E. coli BL21(DE3), purified (membrane extract, HisTrap, thrombin, HiTrap SP ion exchange)
T1 sequence (looked up): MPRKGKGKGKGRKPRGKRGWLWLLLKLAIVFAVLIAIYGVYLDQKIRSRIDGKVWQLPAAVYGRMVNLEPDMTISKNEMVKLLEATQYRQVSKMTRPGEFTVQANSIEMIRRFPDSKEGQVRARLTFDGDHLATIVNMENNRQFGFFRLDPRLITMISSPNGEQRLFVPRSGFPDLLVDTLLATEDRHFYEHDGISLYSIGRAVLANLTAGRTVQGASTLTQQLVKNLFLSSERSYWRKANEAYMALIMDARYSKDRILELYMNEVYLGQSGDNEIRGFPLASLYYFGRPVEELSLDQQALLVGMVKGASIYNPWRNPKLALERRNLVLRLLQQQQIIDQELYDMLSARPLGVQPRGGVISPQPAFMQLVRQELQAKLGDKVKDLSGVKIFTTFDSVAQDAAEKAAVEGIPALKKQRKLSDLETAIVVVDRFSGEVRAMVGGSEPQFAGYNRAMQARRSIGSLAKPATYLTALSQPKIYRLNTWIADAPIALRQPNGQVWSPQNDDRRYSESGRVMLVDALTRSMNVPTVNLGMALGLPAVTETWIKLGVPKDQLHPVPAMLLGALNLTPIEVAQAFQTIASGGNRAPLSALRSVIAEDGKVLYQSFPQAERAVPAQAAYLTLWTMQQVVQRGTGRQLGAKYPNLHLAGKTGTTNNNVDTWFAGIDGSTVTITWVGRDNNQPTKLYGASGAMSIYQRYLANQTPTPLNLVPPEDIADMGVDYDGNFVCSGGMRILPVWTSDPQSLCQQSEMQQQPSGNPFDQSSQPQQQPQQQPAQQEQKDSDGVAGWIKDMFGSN

The next test has as its target T2, PBP1B P162C/I644C (E. coli, UniProt P02919 46-844, P162C | I644C).
T2 construct: PBP1B, E. coli, residues 46-844, made by mutagenesis of pDML924; Disulphide bridge between C162 and C644 (no free thiol groups detected); reduced in the SPR assay with 2 mM TCEP; source: E. coli BL21(DE3), purified (membrane extract, HisTrap, thrombin, HiTrap SP ion exchange)
T2 sequence (looked up): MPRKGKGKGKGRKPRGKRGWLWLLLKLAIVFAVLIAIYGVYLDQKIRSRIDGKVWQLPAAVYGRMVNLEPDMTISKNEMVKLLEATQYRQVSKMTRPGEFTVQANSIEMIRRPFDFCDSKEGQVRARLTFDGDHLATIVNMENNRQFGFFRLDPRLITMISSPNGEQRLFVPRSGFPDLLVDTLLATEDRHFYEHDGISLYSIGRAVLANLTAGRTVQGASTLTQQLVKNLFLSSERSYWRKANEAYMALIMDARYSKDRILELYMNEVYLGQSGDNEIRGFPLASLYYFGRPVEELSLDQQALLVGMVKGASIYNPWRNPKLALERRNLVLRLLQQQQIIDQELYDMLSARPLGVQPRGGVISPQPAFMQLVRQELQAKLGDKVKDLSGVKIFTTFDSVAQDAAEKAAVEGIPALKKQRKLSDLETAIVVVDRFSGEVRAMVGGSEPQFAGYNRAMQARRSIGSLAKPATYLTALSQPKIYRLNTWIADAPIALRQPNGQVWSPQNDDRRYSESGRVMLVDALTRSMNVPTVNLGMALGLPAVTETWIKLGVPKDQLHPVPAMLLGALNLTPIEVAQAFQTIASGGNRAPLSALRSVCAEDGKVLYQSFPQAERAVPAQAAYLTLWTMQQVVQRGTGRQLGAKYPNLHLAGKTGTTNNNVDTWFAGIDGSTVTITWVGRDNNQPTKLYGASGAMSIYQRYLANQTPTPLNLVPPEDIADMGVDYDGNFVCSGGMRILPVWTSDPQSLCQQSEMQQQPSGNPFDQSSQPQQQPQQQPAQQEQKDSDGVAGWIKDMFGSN

Another test has as its target T3, PBP1B I202F (E. coli, UniProt P02919 46-844, I202F).
T3 construct: PBP1B, E. coli, residues 46-844, made by mutagenesis of pDML924; Substitution first found in the suppressor screen of Markovski et al. 2016 (LpoB bypass); source: E. coli BL21(DE3), purified (membrane extract, HisTrap, thrombin, HiTrap SP ion exchange)
T3 sequence (looked up): T2 sequence (looked up) with C117P, I157F, C599I

B1: LpoB (natural protein, E. coli)
chain: VGQREPAPVEEVKPAPEQPAEPQQPVPTVPSVPTIPQQPGPIEHEDQTAPPAPHIRHYDWNGAMQPMVSKMLGADGVTAGSVLLVDSVNNRTNGSLNAAEATETLRNALANNGKFTLVSAQQLSMAKQQLGLSPQDSLGTRSKAIGIARNVGAHYVLYSSASGNVNAPTLQMQLMLVQTGEIIWSGKGAVSQQ
notes: LpoB, E. coli; also called lipoprotein LpoB; source: E. coli BL21(DE3), purified (HisTrap, Superdex 200), as in Egan et al. 2014
Regarding B1, the results for the Kd in the test with PBP1B^Δ158–160, with PBP1B P162C/I644C and in the test with PBP1B I202F were 1700 nM, 182 nM and 17 nM, respectively.
